Assay: yeast display, Sf9 membrane polyspecificity reagent, FACS + sequencing; frameworks hold sequencing errors
How it was run: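 After 36–48 hours of galactose induction, yeast (Saccharomyces cerevisiae BJ5465) displaying a synthetic nanobody library were stained at 4 °C for 1 hour with 10% biotinylated, detergent-solubilized Sf9 membrane reagent. Streptavidin microbeads enriched the stained cells before FACS sorting into low and high (top ~1%) gates on anti-HA and streptavidin fluorescence. Each clone's polyreactivity label reflects its gate of origin.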

Sequence: QVQLVESGGGLVQAGGSLRISCAASGFTFSAYAMGRYRQAPGKERELVAAISWSGSRTYYADSVKGRFTISRDNAKNTVYLQMNSLKPEDTAVYYCAKEPYDTFGFYEYDYWGQGTQVNVSS
- polyreactivity (PSR sort gate): low polyreactivity

Sequence: QVQLVDSGGGLVQAGGSLRLRSAASGFTFCTYDMGWYRQAPGKERELVAAIDSGGSTYYADSVKGRFTISRDNAKNNVYLQMNSLKPEDTAVYYCNKVVDYFWYVEYDYWGQVTQVTVSS
- polyreactivity (PSR sort gate): low polyreactivity

Sequence: QVQLVESGGGLAQAGGSLRLSCAASGRIIYFNAMGWYRQAPGKEREFVAAISSSGNTYYADSVKGRFTISLDNAKNTVYLQMNSLKPEDTEVYYCDAAIYSYYPASGYKRYDYWGQGTQVTVSS
- polyreactivity (PSR sort gate): high polyreactivity

Sequence: QVQLVESGGGLVQAGGSLRLSCAASGSNIRSNAMGWYRQAPGKERELVAAISRTGGRTYYADSVKGRFTISRDNEKNTVYLQMKSLKPEYTAVYYCAASSSGSGGYWGQCTQVTVSS
- polyreactivity (PSR sort gate): high polyreactivity

Sequence: QVQLVESGGGLVQAGGSLRLSCAASGSIYFLYAMGWYRQAPGKERELVAAISWSVDRTYYADSVKGRFTISRDNAKNTVYLQMNSLKPEDTAVYYCAAVHWWSSSLRMYYWGQGTQVTVSS
- polyreactivity (PSR sort gate): low polyreactivity

Sequence: QVQLVESGGGLVQAGGSLRLSCSASGSTFYPYAMGWYRQAPGKERELVAAISSGGSTSYADSVKGRFTISRDNAKNTVYLQMNSLKPEDTAVYYCNASSPGAVPVYDYDYWGQGTQVTVSS
- polyreactivity (PSR sort gate): low polyreactivity

Sequence: QVQLVESGGGLVQAGGSLRLSCAASGRTFRYNTMGWYRQAPGKERELVASISWGGGSTYYADSVKGRFTISRDNAKNTVYLQMNSLKPEDTAVYYCAARRWGQFRFEYWGQGTQVTVSS
- polyreactivity (PSR sort gate): high polyreactivity

Sequence: QVQLVESGGGLVQAGGSLRLSCAASGSIFVSNAMGWYRQAPGKERELVASISQDGGSTYYADSVKGRFTISRDNAKNTVYLQMNSLKPEDTADYYCAAKAEYYYYNGGTTYLVRYYYWGQGTQVTVSS
- polyreactivity (PSR sort gate): low polyreactivity

Sequence: QVQLVESGGGLVQAGGSLRLSCAASGRIFQIYAMGWYRQAPGKERELVAAISGSTSYADSVKGRFTISRDNAKNTVYLQMNCLKPEDSAVYDCSALSLLPNGEYWGQGSQVTVSS
- polyreactivity (PSR sort gate): low polyreactivity

Sequence: QVQLVESGGGLVQAGGSLRLSCAASGIIFISYDMGWSRQAPGKERELVARINWDGGSTYYADSVKGRFTISRDNAKNTVYLQMNSLKPEDTAVYYCAAGFVGTNYPVLGFSYEYWGQGTQVTVSS
- polyreactivity (PSR sort gate): low polyreactivity

Sequence: QVQLQESGGGLVQAGGSLRQSYAASGYIFPSLAMGWYRQAPGKESEFVAAIGRGSTNNYADSVKGRFTISRDNAKNTAYQQMNSLKPEDTAVYYCAAAASPLTRHLYWGQGTQVTVSS
- polyreactivity (PSR sort gate): low polyreactivity

Sequence: QVQLVESGGGIVQAGGSLRLSCAASGRTFQANAMGWYRQAPGKERELVAVISSRGTRTYYADSVKGRFTISRDNAKNTVYLQMNSLKPEDTAVYYCAARVPSVGNQSGYDYWGQGTQVTVSS
- polyreactivity (PSR sort gate): high polyreactivity

Sequence: QVQLVESGGGLVQAGGSLRLSCAASGSTFEANAKGWYRQAPGKERELVAVITWTGGSTYYADSVKGRFTISRDYAKNTVYLQMNSLKPEDTAVYYCAAKFHRFAWYSHYDYWGQGTQVTVSS
- polyreactivity (PSR sort gate): low polyreactivity

Sequence: QVQLQESGSGLVQAGGSLRLSCAASGAIFPAYLMGWYRQAPGKERELVAGISYGSITYCADSVKGRFNISRDNAKNTVYLQMNSLKPEDTAVYYCAVWRPGVDEYYYWGQGTQVTVSS
- polyreactivity (PSR sort gate): low polyreactivity

Sequence: QVQLVESGGGLVQAGGSLRLSCAASGSTFRYYAMGWSRQAPGKERELVAAISRSGTSTYYADSVKGRFTISRDNAKNTVYLQMNSLKPEDTAVYYCAADWHSKIGKGYDYWGQGTQVTVSS
- polyreactivity (PSR sort gate): high polyreactivity

Sequence: QVQLVESGGGLVQAGGSLRLSCAASGRISYSNAMGWYRQAPGKERELVAAITSSGGSTYYADSVKGRFTISRDNAKNTVYLQMNSLKPEDTAVYYCAAVAYALGFASKEDYWGQGTQVTVSS
- polyreactivity (PSR sort gate): high polyreactivity

Sequence: QVQLVESGGGLVQAGGSLRLSCAASGRIFVGYYTMGWYRQAPGKERELVASITWGGGRTYYADSVKGRFTISRDNAKNTVYLQMNSLKPEDTAVYYCAAGYPANYYYLGQGTQVTVSS
- polyreactivity (PSR sort gate): high polyreactivity

Sequence: QFQLVESGRGLVQAGGSLRLSCAASVRIFLWYAMGWYRQAPGKERELVAVIRGRGDSTSYADSVKGRFTISRDNAKNTVYLQMNSLKPEDTAVYYCADVGRYDYNYWGQGTQVTVSS
- polyreactivity (PSR sort gate): low polyreactivity

Sequence: QVQLVESGGGLVQAGGSLRLSCAASGRTFATYAMGWYRQAPGKEREFVAVIDGSGGSTYYADSVKGRFTISRDNAKNTVYLQMNSLKPEDTAVYYCAATSRRKVPNIRKSYGYWGQGTQVTVSS
- polyreactivity (PSR sort gate): high polyreactivity

Sequence: QVQLVESGGGLVQAGGSLRLSCAASGSTFSTNVMGWSRQAPGKERELVAAISTIGGSTYADSVKGRFTISRDNAKNSVYLQMNSLKPEDTAVYDCAATRRWYPTKLYGYWGQGTQVTVSS
- polyreactivity (PSR sort gate): high polyreactivity

Sequence: QVQLVESGGGLVQAGGSLRLSCAASGFTFDFYAMGWYRQAPGKERELVAAINWSGSSTYYADSVKGRFTISRDNAKNTVYLQMNSLKPEDTAVYYCAAQVYYTLFPDVYTMYYWGQGTQVTVSS
- polyreactivity (PSR sort gate): high polyreactivity

Sequence: QVQLVESGGGLVQAGGSLRLSCAASGFIFYHNAMGWYRQAPGKERELVAAISSTGGSTHYADSVKGRFTISRDNAKNTVYLQMNSLKPEDTAVYYCNADPRRRWYDYWGQGTQVTVSS
- polyreactivity (PSR sort gate): high polyreactivity

Sequence: QVQLVESGGGLVQAGGSLRLSCAASGLIFLYYAMGWYRQAPGKERELVAAISRRGGSTYYADSVKGRFTISRDNAKNTVYLQMNSLKPEDTAVDYCAANYESYPRGIWTYYYWGQGTQVTVSS
- polyreactivity (PSR sort gate): high polyreactivity

Sequence: QVQLVESGGGLVQAGGSLRLSCAASGIIFRYYAMGWYRQAPGKERELVAAITVNGGRTYYADSVKGRFTISRDNAKNNVYLQMNSLKPEVTAVYYCAAYPHRYRVTPYPSVVSLDNYWGQGTQVTVSS
- polyreactivity (PSR sort gate): low polyreactivity

Sequence: QVQLVESGGGLVQAGGSLRLSCASSGSIFPAYAMGWYRQAPGKERELVAAISSRGGSTYYADSVKGRFTISRDNAKNTVYLQMNSLKPEDTAVYYCAASRWLYYYLFEYWGQGTQVTVSS
- polyreactivity (PSR sort gate): high polyreactivity

Sequence: QVQLVESGGGLVQAGGSLRLSCAASGSTFQYNAMGWYRQAPGKERELVARISSSGGRTYYADSVKGRFTISRDNAKNTVYLQMNSLKPEDTAVYYCNKGYPYVAYDYWGQGTQVTVSS
- polyreactivity (PSR sort gate): high polyreactivity

Sequence: QLQLVESGGGLVQAGGSLRLSCAASRRIFDRNAMGWYRQAPGKERELVARIDPGDDTNYADSVKGRFTISRDNAKNTVSLQMNSLKPEDSAVYYCATDPDYVLYRTAYYEYDYWGLGTQVTVSS
- polyreactivity (PSR sort gate): low polyreactivity

Sequence: QVQLVESGGGLVQAGGSLRLSCAASGLTFSKNAMGWYRQAPGKERELVATISYSSSRTNYADSVKGRFTISRDNAKNTVYLQMNSLKPEDTAVYYCAARVYKGWPTHYDYWGQGTQVTVSS
- polyreactivity (PSR sort gate): high polyreactivity

Sequence: QVQLVESGGGLVQAGGSLRLSCAASGRTFRYNAMGWYRQAPGKERELVASITYRGGSTYYADSVKGRFTISRDNAKNTVYLQMNSLKPEDTGVYYCATSVYSRPRKPRYYYWGQGTQVTVSS
- polyreactivity (PSR sort gate): high polyreactivity

Sequence: QVQLVESGGGLVQAGGSLRLSCAASGRIFKLYARGWYRQAPGKERELVAAITSGGRTNYADSVKGRFTISRDNAKNTVYLQMNSLKPEDTAVYYCAARYYIVSLGSGYWGQGTQVTVSS
- polyreactivity (PSR sort gate): high polyreactivity

Sequence: QVQLVESGGGLVQAGGSLRLSCAASGYIIARNAMGWYRQAPGKERELVAAIRSSGGSTYYADSVKGRFTISRDNAKNTVYLQMNSLKPEDTAVYYCAARILKRPKLYDYWGQGTQVTVSS
- polyreactivity (PSR sort gate): high polyreactivity

Sequence: QVQLVESGGGLVQAGGSLRLSCAASGRTFYYYAMGWYRPAPGKERELVAAITSRGGSTYYADSVTGRFTISRDNAKNTVYLQMNSLKPEDTAVYYCAAEYWSTYWQSELDYWGQGTQVTVSS
- polyreactivity (PSR sort gate): high polyreactivity

Sequence: QVQLVESRGGLVQAGGSLRLSCAASGSIFNANAMGWYRQAPGKEREIVAAITRAGGGTYYADSVKGRFTISRVNAKNTVYLQMNRLKPEDTAVYYCAREVFFYASTGQTYGYWGQGTQVTVSS
- polyreactivity (PSR sort gate): high polyreactivity

Sequence: QVQLVESGGGLVQAGGSLRLSCAASGRIFSFNGMGWYRPAPGKERELVAAITSSGGRTYYADSVKGRFTISRDNAKNTVYLQMNSLIPEDTAVYYCAAELAWDYYWGQGTQVTVSS
- polyreactivity (PSR sort gate): low polyreactivity

Sequence: QVQLVESGGGLVQAGGSLRLRCAASGFIFSYYAMGWYRQAPGKERELVAGISYNGNRTYYADSVEGRFTISRDNAKNTVYLQMNSLKPEDTAVYYCNVVCVLGGWYDLEYDYWGQGTQVTVSS
- polyreactivity (PSR sort gate): high polyreactivity

Sequence: QVQLQESGGGLVQAGGSLRQSYAASGYIFPYLAMGWYRQAPGKEREFVAAIGRGSTNNYADSVKGRFTISRDNAKNTAYQQMNSLKPEDTAVYYCAGAASPLTRHLYWGQGNQVTVSS
- polyreactivity (PSR sort gate): low polyreactivity

Sequence: QVQLVESGGGLVQAGGSLRLSCAASGRTFFDYTMGWYRQAPGNERELDAAITGGDGSTYYADSVKGRFTISRDNAKNTVYLEMTSLKPEDTAVYYCAAEYTRTYWYAAMDYWGQGTQVTVSS
- polyreactivity (PSR sort gate): low polyreactivity

Sequence: QVQLVESGGGLVQAGGSLRLSCAASGSIYIVNVMGWYRQAPGKERELVAGITTNGGITYYADSVKGRFTISRDNAKNTVYLQMNSLKPEDTAVYYCATRSGSPSSIEMDYWGQGTQVTVSS
- polyreactivity (PSR sort gate): low polyreactivity

Sequence: QVQLVESGGGLVQAGGSLRLSCAASGSTIYRYAMGGYRQAPGKERELVAAITWSGGSTYYADSVKGRFTISRDNAKNTVYLQMNSLKPADTAVYYCNAVARYYYKDQTIIHSPREDYWGQGTQVTVSS
- polyreactivity (PSR sort gate): low polyreactivity

Sequence: QVQLVESGGGLVQAGGSLRLSCAASGSTFSVYAMGWYRQAPGKERELVATITWNGGRTYYADSVKGRFTISRDNAKNTVYLQMNSLKREDTAVYYCASPWLKPGNGIYGGYGYWGQGTQVTVSS
- polyreactivity (PSR sort gate): high polyreactivity

Sequence: QVQLVESGGGLVQAGGSLRLSCAASGSNFDTYAMGWYRQAPGKESELVAAITRRAGSTYYADSVKGRFTISRDNAKYTVYLQMNSLKPEDTAVYYCAADFRYPDNYGGYDYWGQGTQVTVSS
- polyreactivity (PSR sort gate): low polyreactivity

Sequence: QVQLVESGGGLVQAGGSLRLSCAASGFIFYYYAMGWYRQAPAKERELVAVITSGGSTNYADSVKGRFTISRDNAKNTVYLQMNSLKPEDTAVYYCAARSRRRDDYWGQGTQVTVSS
- polyreactivity (PSR sort gate): high polyreactivity

Sequence: QVQLVESGGGLVQAGGSLRLSCAASGRTLLYNAMGWYRQAPGKERELVAAISYRGGSTYYADSVKGRFTISRDNAKNTVYLQMNSLKPEDTAVYYCAKVTYPYIRWYYPGYDYWGQGTQVTVSS
- polyreactivity (PSR sort gate): high polyreactivity
